In one experiment the target is T1, P8A.
T1 chain: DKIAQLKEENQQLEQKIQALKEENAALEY
Briefly: two-hybrid library CCNG1.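 Note: natural log of median RNA to DNA barcode read ratio; higher means stronger binding.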

A further experiment deals with T2, P9A.
T2 chain: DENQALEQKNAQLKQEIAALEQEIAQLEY
Put plainly: two-hybrid library CCNG1.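 Note: natural log of median RNA to DNA barcode read ratio; higher means stronger binding.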

The target of another experiment is T3, 4H741-bA.
T3 chain: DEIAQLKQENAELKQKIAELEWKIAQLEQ
Put plainly: two-hybrid library CCNG1.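 Note: natural log of median RNA to DNA barcode read ratio; higher means stronger binding.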

A further experiment addresses T4, 4H3057-bA.
T4 chain: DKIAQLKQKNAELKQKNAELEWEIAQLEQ
Briefly: two-hybrid library CCNG1.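 Note: natural log of median RNA to DNA barcode read ratio; higher means stronger binding.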

The target of a further experiment is T5, 4H2839-bA.
T5 chain: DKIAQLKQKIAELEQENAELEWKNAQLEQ
Briefly: two-hybrid library CCNG1.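 Note: natural log of median RNA to DNA barcode read ratio; higher means stronger binding.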

A further experiment addresses T6, 4H348-bA.
T6 chain: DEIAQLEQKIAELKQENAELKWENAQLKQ
Briefly: two-hybrid library CCNG1.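 Note: natural log of median RNA to DNA barcode read ratio; higher means stronger binding.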

The target in another experiment is T7, 4H2915-bA.
T7 chain: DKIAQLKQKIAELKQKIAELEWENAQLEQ
Put plainly: two-hybrid library CCNG1.

For a further experiment, the target named is T8, 4H492-bA.
T8 chain: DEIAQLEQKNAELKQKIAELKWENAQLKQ
Briefly: two-hybrid library CCNG1.

The next experiment has as its target T9, 4H40-bA.
T9 chain: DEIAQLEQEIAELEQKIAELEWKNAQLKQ
Briefly: two-hybrid library CCNG1.

The next experiment concerns the target T10, 4H319-bA.
T10 chain: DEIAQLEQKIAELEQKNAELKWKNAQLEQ
Put plainly: two-hybrid library CCNG1.

The target in a further experiment is T11, 4H3277-bA.
T11 chain: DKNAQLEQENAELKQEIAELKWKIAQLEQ
Briefly: two-hybrid library CCNG1.

In the next experiment the target is T12, 4H477-bA.
T12 chain: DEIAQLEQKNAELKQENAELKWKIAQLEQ
Put plainly: two-hybrid library CCNG1.

Another experiment deals with T13, 4H2717-bA.
T13 chain: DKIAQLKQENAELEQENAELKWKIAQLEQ
Put plainly: two-hybrid library CCNG1.

The target in a further experiment is T14, 4H2621-AA.
T14 chain: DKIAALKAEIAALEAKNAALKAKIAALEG
Briefly: two-hybrid library CCmax. To be noted: mean of both orientations.

A further experiment addresses T15, 4H2961-AA.
T15 chain: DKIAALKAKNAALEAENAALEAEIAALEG
Put plainly: two-hybrid library CCmax. To be noted: mean of both orientations.

In another experiment the target is T16, 4H446-AA.
T16 chain: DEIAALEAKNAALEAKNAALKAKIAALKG
Put plainly: two-hybrid library CCmax. As to conditions: mean of both orientations.

Another experiment deals with T17, 4H3049-AA.
T17 chain: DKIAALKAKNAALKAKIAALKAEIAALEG
Put plainly: two-hybrid library CCmax. To be noted: mean of both orientations.

The target in a further experiment is T18, 4H3449-AA.
T18 chain: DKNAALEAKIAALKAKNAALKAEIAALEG
Briefly: two-hybrid library CCmax. To be noted: mean of both orientations.

The target of another experiment is T19, 4H432-AA.
T19 chain: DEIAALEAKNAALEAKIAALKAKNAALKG
Put plainly: two-hybrid library CCmax. To be noted: mean of both orientations.

The next experiment addresses T20, 4H3777-AA.
T20 chain: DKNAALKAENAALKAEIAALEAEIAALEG
Put plainly: two-hybrid library CCmax. As to conditions: mean of both orientations.

Another experiment deals with T21, 4H3915-AA.
T21 chain: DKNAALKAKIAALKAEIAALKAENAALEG
Briefly: two-hybrid library CCmax. To be noted: mean of both orientations.

The next experiment addresses T22, 4H324-AA.
T22 chain: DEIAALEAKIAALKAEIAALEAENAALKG
Briefly: two-hybrid library CCmax. To be noted: mean of both orientations.

In another experiment the target is T23, 4H3629-AA.
T23 chain: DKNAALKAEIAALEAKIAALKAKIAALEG
Put plainly: two-hybrid library CCmax. To be noted: mean of both orientations.

The target of another experiment is T24, 4H2947-AA.
T24 chain: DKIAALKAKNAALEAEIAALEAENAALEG
Briefly: two-hybrid library CCmax. As to conditions: mean of both orientations.

In the next experiment the target is T25, 4H3094-AA.
T25 chain: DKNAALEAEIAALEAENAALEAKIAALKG
Put plainly: two-hybrid library CCmax. To be noted: mean of both orientations.

In the next experiment the target is T26, 4H63-AA.
T26 chain: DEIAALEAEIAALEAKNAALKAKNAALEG
Put plainly: two-hybrid library CCmax. To be noted: mean of both orientations.

A further experiment deals with T27, 4H2760-AA.
T27 chain: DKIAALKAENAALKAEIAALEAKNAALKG
Briefly: two-hybrid library CCmax. As to conditions: mean of both orientations.

Another experiment concerns the target T28, 4H380-AA.
T28 chain: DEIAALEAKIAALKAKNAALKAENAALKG
Briefly: two-hybrid library CCmax. To be noted: mean of both orientations.

The target of another experiment is T29, 4H2774-AA.
T29 chain: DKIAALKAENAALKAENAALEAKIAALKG
Briefly: two-hybrid library CCmax. To be noted: mean of both orientations.

In a further experiment the target is T30, 4H341-AA.
T30 chain: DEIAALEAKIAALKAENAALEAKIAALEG
Briefly: two-hybrid library CCmax. To be noted: mean of both orientations.

In a further experiment the target is T31, 4H2604-AA.
T31 chain: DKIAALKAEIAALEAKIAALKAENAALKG
Put plainly: two-hybrid library CCmax.

The next experiment deals with T32, 4H2903-AA.
T32 chain: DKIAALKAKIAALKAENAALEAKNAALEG
Briefly: two-hybrid library CCmax. As to conditions: mean of both orientations.

The next experiment concerns the target T33, 4H3619-AA.
T33 chain: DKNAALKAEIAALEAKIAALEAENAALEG
Briefly: two-hybrid library CCmax. To be noted: mean of both orientations.

In another experiment the target is T34, 4H3974-AA.
T34 chain: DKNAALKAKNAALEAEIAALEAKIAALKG
Put plainly: two-hybrid library CCmax. As to conditions: mean of both orientations.

The target of a further experiment is T35, O6-bS.
T35 chain: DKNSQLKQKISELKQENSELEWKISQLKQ
Briefly: two-hybrid library CCNG1.

The target in a further experiment is T36, O8-bS.
T36 chain: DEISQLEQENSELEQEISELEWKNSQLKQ
Briefly: two-hybrid library CCNG1.

In another experiment the target is T37, O7-bS.
T37 chain: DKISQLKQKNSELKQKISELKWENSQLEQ
Put plainly: two-hybrid library CCNG1.

The target of another experiment is T38, O9-bS.
T38 chain: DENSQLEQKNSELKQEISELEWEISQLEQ
Put plainly: two-hybrid library CCNG1.

A further experiment concerns the target T39, O5-bS.
T39 chain: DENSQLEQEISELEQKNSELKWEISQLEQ
Briefly: two-hybrid library CCNG1.

A further experiment addresses T40, 4H730-bA.
T40 chain: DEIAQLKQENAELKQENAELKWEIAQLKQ
Briefly: two-hybrid library CCNG1.

The target in the next experiment is T41, 4H56-bA.
T41 chain: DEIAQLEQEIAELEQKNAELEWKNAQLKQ
Briefly: two-hybrid library CCNG1.

The target of a further experiment is T42, 4H349-bA.
T42 chain: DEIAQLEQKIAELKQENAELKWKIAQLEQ
Briefly: two-hybrid library CCNG1.

The target of a further experiment is T43, 4H949-bA.
T43 chain: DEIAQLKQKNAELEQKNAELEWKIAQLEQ
Briefly: two-hybrid library CCNG1.

The next experiment has as its target T44, 4H3364-bA.
T44 chain: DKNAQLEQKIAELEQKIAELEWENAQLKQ
Put plainly: two-hybrid library CCNG1.

For the next experiment, the target named is T45, 4H3381-bA.
T45 chain: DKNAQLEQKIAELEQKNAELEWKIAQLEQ
Put plainly: two-hybrid library CCNG1.

In another experiment the target is T46, 4H796-bA.
T46 chain: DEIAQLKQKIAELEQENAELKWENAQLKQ
Briefly: two-hybrid library CCNG1.

The target in a further experiment is T47, 4H932-bA.
T47 chain: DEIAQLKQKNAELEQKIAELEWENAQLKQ
Put plainly: two-hybrid library CCNG1.

Here are results for 6 molecules from PMC10397247.

B1: P8A (peptide)
chain: DKIAQLKEENQQLEQKIQALKEENAALEY
Take B1: the interaction score with P8A is -1.27; in the experiment with P9A, -1.56.

B2: 4H2839-bA (peptide)
chain: DKIAQLKQKIAELEQENAELEWKNAQLEQ
As for B2, the interaction score with 4H741-bA was -0.816; in the experiment with 4H3057-bA it was -0.0141; with 4H2839-bA, 0.104; with 4H348-bA it was -0.533; with 4H2915-bA, -0.223; in the experiment with 4H492-bA, -0.582. The interaction score was 1.35 with 4H40-bA, 1.61 with 4H319-bA, -0.969 with 4H3277-bA and -0.768 in the experiment with 4H477-bA.

B3: 4H2717-bA (peptide)
chain: DKIAQLKQENAELEQENAELKWKIAQLEQ
In the case of B3, the interaction score is -1.48 with 4H741-bA; 1.23 in the experiment with 4H3057-bA; -0.857 with 4H2839-bA; -1.06 in the experiment with 4H348-bA; -0.721 with 4H2915-bA; 1.02 with 4H2717-bA. Further, the interaction score in the experiment with 4H492-bA was -1.39; in the experiment with 4H40-bA it was -1.55; with 4H3277-bA, -0.874; with 4H477-bA, 0.776.

B4: 4H2604-AA (peptide)
chain: DKIAALKAEIAALEAKIAALKAENAALKG
In the case of B4, the interaction score with 4H2621-AA is -0.139; with 4H2961-AA, -1.69; with 4H446-AA it was -1.79; with 4H3049-AA it was -0.492; with 4H3449-AA, -0.758; with 4H432-AA it was -1.37. Besides, the interaction score was -1.38 with 4H3777-AA; 0.216 with 4H3915-AA; 2.07 with 4H324-AA; 1.84 in the experiment with 4H3629-AA; -1.68 with 4H2947-AA; -1.23 with 4H3094-AA. The interaction score with 4H63-AA is -1.37; in the experiment with 4H2760-AA, -1.02; in the experiment with 4H380-AA, 1.01; with 4H2774-AA, -1.79; with 4H341-AA, 0.155; in the experiment with 4H2604-AA, 1.78. In addition, the interaction score in the experiment with 4H2903-AA is -0.407; with 4H3619-AA it was -0.188; with 4H3974-AA, -0.774.

B5: O5-bS (peptide)
chain: DENSQLEQEISELEQKNSELKWEISQLEQ
Regarding B5, the interaction score in the experiment with O6-bS is 2.08; in the experiment with O8-bS it was -1.34; with O7-bS, -1.98; with O9-bS, -0.729; with O5-bS, -1.98.

B6: 4H3364-bA (peptide)
chain: DKNAQLEQKIAELEQKIAELEWENAQLKQ
With B6, the interaction score is 0.124 in the experiment with 4H730-bA; 0.349 with 4H56-bA; -1.53 in the experiment with 4H349-bA; -0.26 with P8A; -1.22 with 4H949-bA; 1.01 with 4H3364-bA. Further, the results for the interaction score in the experiment with 4H3381-bA, in the experiment with 4H796-bA and in the experiment with 4H932-bA were -0.647, 0.137 and -0.586, respectively.
